These results are taken from paper PMC12595022.

This experiment deals with 14-3-3γ (UniProt P61981). Nature of the experiment: co-immunoprecipitation, Western blot. As to conditions: reference: full-length wild-type MDMX; sites S367. Background: In western blotting, separated proteins are transferred to a membrane and probed.

Take MDMX (from UniProt O15151) MDMX-S367A: the “binding against the reference” value is “lost”.
